Sequences and labels used below:
B1: human mini TyrRS (ligand)
chain: MGDAPSPEEKLHLITRNLQEVLGEEKLKEILKERELKIYWGTATTGKPHVAYFVPMSKIADFLKAGCEVTILFADLHAYLDNMKAPWELLELRVSYYENVIKAMLESIGVPLEKLKFIKGTDYQLSKEYTLDVYRLSSVVTQHDSKKAGAEVVKQVEHPLLSGLLYPGLQALDEEYLKVDAQFGGIDQRKIFTFAEKYLPALGYSKRVHLMNPMVPGLTGSKMSSSEEESKIDLLDRKEDVKKKLKKAFCEPGNVENNGVLSFIKHVLFPLKSEFVILRDEKWGGNKTYTAYVDLEKDFAAEVVHPGDLKNSVEVALNKLLDPIREKFNTPALKKLASAAYPDPSKQKPMAKGPAKNSEPEEVILEHHHHHH
modifications: Radioiodinated (125I) where used as the labelled ligand; iodinated residues not stated. Runs as a homodimer on gel filtration.
notes: Recombinant, made in E. coli

Assay [1] deals with PMN receptor for mini TyrRS (on human PMNs) (human). Description: Scatchard analysis of ^125I-mini TyrRS binding to human PMNs at 4 C. The source says: The supernatant was aspirated, and the cell sediment was resuspended using EcoLite (ICN Biomedicals, Irvine, Calif.) and analyzed in a scintillation counter.
The assay “human mini TyrRS” addresses B1. In words: radioligand binding (Scatchard) to RBL2H3 cells transfected with the type A IL-8 receptor. Here is the method: Following incubation, cells were separated from unbound radioactivity as described herein.
Untransfected RBL2H3 cells express neither the type A nor type B receptors.

For orientation: Kd means the constant that tells how readily two partners part at equilibrium. High values mean weaker binding, low ones tighter binding. For the molecule B1, the Kd in assay [1] is 21 nM.

B2: type A IL-8 receptor (receptor, UniProt P25024 1-350, looked up)
chain: MSNITDPQMWDFDDLNFTGMPPADEDYSPCMLETETLNKYVVIIAYALVFLLSLLGNSLVMLVILYSRVGRSVTDVYLLNLALADLLFALTLPIWAASKVNGWIFGTFLCKVVSLLKEVNFYSGILLLACISVDRYLAIVHATRTLTQKRHLVKFVCLGCWGLSMNLSLPFFLFRQAYHPNNSSPVCYEVLGNDTAKWRMVLRILPHTFGFIVPLFVMLFCYGFTLRTLFKAHMGQKHRAMRVIFAVVLIFLLCWLPYNLVLLADTLMRTQVIQESCERRNNIGRALDATEILGFLHSCLNPIIYAFIGQNFRHGFLKILAMHGLVSKEFLARHRVTSYTSSSVNVSSNL
notes: whole, on cells; also called IL-8 receptor type A; CXCR1
In the assay with human mini TyrRS, B2 showed an equilibrium dissociation constant (Kd) of 8 nM.
